Results reported in US20020151680A1 (VEGENICS, published 2002).

T1: VEGFR-3-Fc (UniProt P35916 25-329)
T1 construct: domain: first three Ig domains; used as conditioned supernatant of 293T cells; also called VEGFR-3-Fc fusion protein; not shown: Fc fragment of the pIg vector
T1 sequence (looked up): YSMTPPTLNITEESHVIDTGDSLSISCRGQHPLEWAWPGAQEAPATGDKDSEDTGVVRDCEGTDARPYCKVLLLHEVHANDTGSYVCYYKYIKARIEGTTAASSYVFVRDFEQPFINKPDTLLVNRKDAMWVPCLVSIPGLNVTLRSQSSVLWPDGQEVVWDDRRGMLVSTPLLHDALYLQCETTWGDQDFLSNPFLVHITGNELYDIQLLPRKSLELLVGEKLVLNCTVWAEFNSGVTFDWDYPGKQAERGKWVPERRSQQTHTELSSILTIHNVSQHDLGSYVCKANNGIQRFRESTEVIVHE


What was measured:
Assay in all cases: 35S IP, receptor-Fc
VEGFR-1-Fc = molecular target: T2, VEGFR-1-Fc (UniProt P17948 27-331)
T2 construct: domain: first three Ig domains; expressed in Drosophila S2 cells, purified on Protein A sepharose; also called VEGFR-1-Fc fusion protein; not shown: Fc fragment from the Signal-pIgPlus vector
Experimental: (§1) The binding assay procedure was identical to the immunoprecipitation using pentahistidine antibody described in Example 2, apart from the composition of the immunoprecipitation (IP) mixes. The IP mixes used for the receptor binding analysis were as follows: For VEGFR- 1 binding assays, the IP mix was phosphate buffered saline (PBS) containing 1.5% BSA, 0.06% Tween 20, 3 μg/ml heparin and 400 ng/ml VEGFR-1 -Fc fusion protein (100 μl of this IP mix was added to 200 μl of sample supernatant); for VEGFR-2 binding assays, the IP mix was 82% conditioned cell supernatant from 293T cells transiently expressing VEGFR-2-Fc fusion protein in mixture with 18% of a PBS solution that contained 5% BSA, 0.2% Tween 20, and 10 μg/ml heparin (250 μl of IP mix was added to 200 μl of sample supernatant); and for VEGFR-3 binding assays, the IP mix was 82% conditioned cell supernatant from 293T cells transiently expressing VEGFR-3-Fc fusion protein, 18% of PBS containing 5% BSA, 0.2% Tween 20, and 10 μg/ml heparin (250 μl of IP mix was added to 200 μl of sample supernatant).

VEGFR-2-Fc = molecular target: T3, VEGFR-2-Fc (UniProt P35968 24-326)
T3 construct: domain: first 3 Ig domains; used as conditioned supernatant of 293T cells; also called VEGFR-2-Fc fusion protein; not shown: Fc fragment of the pIg vector
Experimental: as §1

VEGFR-3-Fc = molecular target: T1, VEGFR-3-Fc
Experimental: as §1

T3 sequence (P35968 24-326): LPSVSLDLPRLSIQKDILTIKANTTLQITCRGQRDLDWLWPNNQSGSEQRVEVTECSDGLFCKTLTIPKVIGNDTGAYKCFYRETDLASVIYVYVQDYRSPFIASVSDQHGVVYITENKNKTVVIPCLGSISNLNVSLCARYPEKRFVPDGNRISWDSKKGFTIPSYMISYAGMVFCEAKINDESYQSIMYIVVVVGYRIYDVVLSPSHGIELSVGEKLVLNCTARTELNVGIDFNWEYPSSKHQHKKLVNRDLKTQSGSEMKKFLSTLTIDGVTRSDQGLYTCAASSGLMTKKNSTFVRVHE
T2 sequence (P17948 27-331): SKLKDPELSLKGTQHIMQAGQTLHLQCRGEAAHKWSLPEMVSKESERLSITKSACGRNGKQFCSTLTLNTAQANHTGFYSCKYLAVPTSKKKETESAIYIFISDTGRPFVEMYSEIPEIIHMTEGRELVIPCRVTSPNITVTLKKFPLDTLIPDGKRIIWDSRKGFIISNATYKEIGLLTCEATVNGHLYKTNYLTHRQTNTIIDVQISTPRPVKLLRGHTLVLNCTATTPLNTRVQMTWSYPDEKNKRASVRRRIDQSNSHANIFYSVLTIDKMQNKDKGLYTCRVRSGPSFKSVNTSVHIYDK

Binder | binding result (VEGFR-1-Fc) | binding result (VEGFR-2-Fc) | binding result (VEGFR-3-Fc)
31-6 (ligand) GQNHHEVVKSIDNEWRKTQCMPIETLVDIFQEYPDEIEYIFKPSCVPLMRCGGCCNDEGLECMNTSTSYLSKTLFEIKPHQGQHIGEMSFANHTSCRCMSKLDLVFEQKLISEEDLNSAVDHHHHHH | no binding | no binding | no binding
31-11 (ligand) GQNHHEVVKSIDNEWRKTQCMPIETLVDIFQEYPDEIEYIFKPSCVPLMRCGGCCNSEGLQCVPTEESNITMQIMRITVPLSQGPKPVTISFLQHNKCECRPKKDLVFEQKLISEEDLNSAVDHHHHHH | no binding | no binding | no binding

Results, then the binder that gave them:

binding result (VEGFR-1-Fc) | binding result (VEGFR-2-Fc) | binding result (VEGFR-3-Fc) | Binder
no binding | no binding | – | 12-16 (ligand) GQNHHEVVKFMDVYQRSYCHPIETLVDIFQEFGVATNTFFKPPCVSVYRCGLLQ
no binding | no binding | no binding | 31-1 (ligand) GQNHHEVVKSIDNEWRKTQCMPIETLVDIFQEYPDEIEYIFKPSCVPLMRCGGCCNDEGLECVPTEESNITMQIMRIKPHQGQHIGEMSFLQHNKCECRPKKDLVFEQKLISEEDLNSAVDHHHHHH
